Read-outs that look alike come from different tables or passages of the source.
T1: Human TNFR2 mFc (human, UniProt P20333 23-257)
T1 construct: Bought protein; not shown: mFc
T1 sequence (looked up): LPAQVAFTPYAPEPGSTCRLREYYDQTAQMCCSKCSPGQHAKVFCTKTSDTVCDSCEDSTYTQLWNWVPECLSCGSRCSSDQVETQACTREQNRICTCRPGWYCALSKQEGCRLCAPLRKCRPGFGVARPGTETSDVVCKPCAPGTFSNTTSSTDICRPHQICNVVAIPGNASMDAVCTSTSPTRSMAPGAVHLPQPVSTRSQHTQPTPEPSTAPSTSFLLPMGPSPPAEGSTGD

T2: Human-TNFR2-His (human, UniProt P20333 23-257)
T2 construct: Bought protein; also called human TNFR2 protein; TNFR2 protein; not shown: His tag
T2 sequence (looked up): T1 sequence (looked up)

B1: Antibody A (bispecific antibody, human IgG1, kappa)
light: DIQMTQSPSSLSASLGDRVTISCSASQGISNYLNWYQQKPDGTVKLLIYYTSTLHSGVPSRFSGSGSGTDYTLTISSLQPEDIATYYCQQYSKLPWTFGGGTKLEIKRTVAAPSVFIFPPSDEQLKSGTASVVCLLNNFYPREAKVQWKVDNALQSGNSQESVTEQDSKDSTYSLSSTLTLSKADYEKHKVYACEVTHQGLSSPVTKSFNRGEC
heavy: not shown
notes: IgG1 subtype; full-length 4-1BB antibody with TNFR2 scFv at the C-terminus of the heavy chains; two identical first and two identical second peptide chains
B2: Antibody M2 (bispecific antibody, human IgG4 S228P, kappa)
light: B1 light
heavy: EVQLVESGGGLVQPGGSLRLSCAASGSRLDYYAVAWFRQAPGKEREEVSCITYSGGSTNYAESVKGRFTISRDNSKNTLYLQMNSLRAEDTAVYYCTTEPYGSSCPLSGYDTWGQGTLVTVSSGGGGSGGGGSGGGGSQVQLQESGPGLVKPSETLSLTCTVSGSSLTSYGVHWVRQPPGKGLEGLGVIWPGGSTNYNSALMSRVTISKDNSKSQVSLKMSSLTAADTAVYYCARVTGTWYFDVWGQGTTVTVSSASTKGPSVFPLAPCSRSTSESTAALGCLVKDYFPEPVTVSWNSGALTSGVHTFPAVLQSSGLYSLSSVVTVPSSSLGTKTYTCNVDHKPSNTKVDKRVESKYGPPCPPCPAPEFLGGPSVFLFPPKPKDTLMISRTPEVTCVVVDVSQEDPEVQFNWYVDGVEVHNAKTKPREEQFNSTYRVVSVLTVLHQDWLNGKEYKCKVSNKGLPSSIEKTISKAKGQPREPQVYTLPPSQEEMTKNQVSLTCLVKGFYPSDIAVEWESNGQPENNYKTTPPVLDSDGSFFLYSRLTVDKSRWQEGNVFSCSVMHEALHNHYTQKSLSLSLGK
notes: IgG4 subtype; same order as M1
B3: Antibody J2 (bispecific antibody, human IgG4 S228P, kappa)
light: B1 light
heavy: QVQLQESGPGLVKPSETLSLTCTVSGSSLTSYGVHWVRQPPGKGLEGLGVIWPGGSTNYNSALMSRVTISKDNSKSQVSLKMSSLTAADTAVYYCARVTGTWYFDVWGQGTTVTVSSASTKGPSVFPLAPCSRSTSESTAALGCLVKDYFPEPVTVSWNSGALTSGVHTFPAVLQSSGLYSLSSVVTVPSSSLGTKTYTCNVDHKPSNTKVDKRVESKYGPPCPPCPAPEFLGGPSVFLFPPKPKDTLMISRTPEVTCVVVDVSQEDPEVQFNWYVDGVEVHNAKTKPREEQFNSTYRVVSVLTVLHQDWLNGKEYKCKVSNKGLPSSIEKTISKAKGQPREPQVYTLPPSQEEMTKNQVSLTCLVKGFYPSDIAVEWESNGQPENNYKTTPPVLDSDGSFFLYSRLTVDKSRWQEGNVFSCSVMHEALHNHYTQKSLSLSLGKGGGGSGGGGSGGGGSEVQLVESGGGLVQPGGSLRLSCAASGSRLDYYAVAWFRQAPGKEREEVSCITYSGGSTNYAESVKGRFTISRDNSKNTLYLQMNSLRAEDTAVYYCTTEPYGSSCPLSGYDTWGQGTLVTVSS
notes: IgG4 subtype; same order as J1
B4: Antibody C (bispecific antibody, human IgG1, kappa)
light: B1 light
heavy: not shown
notes: IgG1 subtype; full-length 4-1BB antibody with TNFR2 scFv at the N-terminus of the heavy chains
B5: Positive control 1 (anti-TNFR2 antibody, human IgG1) (antibody, V domains shown)
VH: EVQLVQSGAEVKKPGATVKISCKVSGYSITDYLLHWVQQAPGKGLEWMGWIDPEDAKTKYGQKFQSRVTITADTSTDTAYMELSSLRSEDTAVYYCAANSGTGTMDAWGQGTLVTVSS
VL: DIVMTQSPATLSVSPGERATLSCKASQNVGSNVDWYQQKPGQSPRVLIYKASIRYTGIPARFSGSGSGTEFTLTISILQSEDFAVYFCMQSKSYPITFGQGTKLEIK

Experiments:
Human 4-1BB Fc = target: T3, Human 4-1BB Fc (human, UniProt Q07011 24-186); assay: bridging ELISA: Human 4-1BB Fc coated (0.3 ug/mL), antibody titrated, then Human-TNFR2-His (0.3 ug/mL), HRP anti-His detection (Example 4)
T3 construct: same catalogue and lot number as Human 4-1BB His; not shown: Fc
Protocol: Human 4-1BB Fc (manufacturer: Acro, CAT: 41B-H5258, LOT: 198-2146F1-W6) was diluted to 0.3 μg/mL with a coating solution (1×PBS, pH7.4) and coated into a 96-well ELISA plate at 100 µL/well at 4° C. overnight. The coating solution was poured off. Each well was washed with 1×PBST at 300 μL, washed 4 times with a plate washer, and patted dry on a flat sheet. It was blocked with 3% skim milk powder at 300 μL/well, and incubated at 37° C. for 1 h. The blocking solution was poured off, washed 4 times with a plate washer, and patted dry on a flat sheet. […] Starting at 50 nM, which was used as the initial concentration for 3-fold dilution, a total of 10 gradients were diluted, and a blank well was set up and only the diluent was added. It was incubated at 37° C. for 1 h at 100 μL/well. The liquid in the well was discarded, washed 4 times with a plate washer, and patted dry on a flat paper. Human-TNFR2-His (manufacturer: Sino, CAT: 10417-H08H, LOT: LC15NO0412) was diluted to 0.3 μg/mL, 100 μL was added to each well, and incubated at room temperature for 1 h. The plate was washed 3 times with PBST, and then the HRP-labeled his antibody was diluted with sample diluent at 1:5000, 100 μ L was added to each well, and incubated at room temperature for 1 h. It was washed 6 times with a plate washer, and patted dry on a flat paper. TMB color developing solution was added at 100 μL/well, and wrapped with aluminum foil. Color development was performed at 37° C. in the dark for 8 min. Termination solution 1M HCl was added to terminate the color development reaction at 100 μL/well. Readings were taken at 450 nm on an ELISA reader.

Human 4-1BB His [1] = target: T4, Human 4-1BB His (human, UniProt Q07011 24-186); assay: ELISA: Human 4-1BB His coated (0.2 ug/mL), antibody titrated, goat anti-human IgG Fc detection (Example 3)
T4 construct: Bought protein; lots 198-2146F1-W6 and 2407c-214FF1-YC; also called human 4-1BB protein; 4-1BB protein; not shown: His tag
Protocol: (§1) Human 4-1BB His (manufacturer: Acro, CAT: 41B-H5258, LOT: 198-2146F1-W6) was diluted to 0.2 μg/mL with a coating solution (1×PBS, pH7.4), and coated in 96-well ELISA plate at 100 μL/well overnight at 4° C. The coating solution was poured off. Each well was washed with 1×PBST at 300 μL, washed 4 times with a plate washer, and patted dry on a flat paper. It was blocked with 3% skim milk powder at 300 μL/well, and incubated at 37° C. for 1 h. The blocking solution was poured off, washed 4 times with a plate washer, and patted dry on a flat paper. Negative control and positive control were set up. […] The variable region of the antibody sequence of the positive control consists of SEQ ID NO: 15 and SEQ ID NO: 19, with the addition of the constant region of human IgG1 (SEQ ID NO: 46 and SEQ ID NO: 47). The positive control and antibody were diluted to 10 μg/mL with 3% skim milk powder as the starting concentration, and then diluted by 3-fold gradient (11 gradients in total), and a blank well was set up and only the diluent was added. It was incubated at 37° C. for 1 h at 100 μL/well. The liquid in the well was discarded, washed 4 times with a plate washer, and patted dry on a flat paper. Goat anti-human IgG Fc was diluted with 3% skim milk powder at 1:20000, and incubated at 37° C. for 1 h at 100 μL/well. It was washed 6 times with a plate washer, and patted dry on a flat paper. TMB color developing solution was added at 100 μL/well, and wrapped with aluminum foil. Color development was performed at 37° C. in the dark for 8 min. Termination solution 1M HCl was added to terminate the color development reaction at 100 μL/well. Readings were taken at 450 nm on an ELISA reader.

Human TNFR2 mFc = target: T1, Human TNFR2 mFc; assay: bridging ELISA: Human TNFR2 mFc coated (0.3 ug/mL), antibody titrated, then Human 4-1BB His (0.3 ug/mL), HRP anti-His detection (Example 5)
Protocol: Human TNFR2 mFc (manufacturer: Kaixia, CAT: TN-HM3R2, LOT: 031202) was diluted to 0.3 μg/mL with a coating solution (1×PBS, pH7.4) and coated into a 96-well ELISA plate at 100 μL/well at 4° C. overnight. The coating solution was poured off. Each well was washed with 1×PBST at 300 μL, washed 4 times with a plate washer, and patted dry on a flat paper. It was blocked with 3% skim milk powder at 300 μL/well, and incubated at 37° C. for 1 h. The blocking solution was poured off, washed 4 times with a plate washer, and patted dry on a flat paper. […] Starting at 50 nM, which was used as the initial concentration for 3-fold dilution, a total of 10 gradients were diluted, and a blank well was set up and only the diluent was added. It was incubated at 37° C. for 1 h at 100 µL/well. The liquid in the well was discarded, washed 4 times with a plate washer, and patted dry on a flat paper. Human 4-1BB His (manufacturer: Acro, CAT: 41B-H5258, LOT: 198-2146F1-W6) was diluted to 0.3 μg/mL, 100 μL was added to each well, and incubated at room temperature for 1 h. The plate was washed 3 times with PBST, and then the HRP-labeled his antibody was diluted with sample diluent at 1:5000, 100 μ L was added to each well, and incubated at room temperature for 1 h. It was washed 6 times with a plate washer, and patted dry on a flat paper. TMB color developing solution was added at 100 μL/well, and wrapped with aluminum foil. Color development was performed at 37° C. in the dark for 8 min. Termination solution 1M HCl was added to terminate the color development reaction at 100 μL/well. Readings were taken at 450 nm on an ELISA reader.

Human-TNFR2-His [2] = target: T2, Human-TNFR2-His; assay: ELISA: Human-TNFR2-His coated (0.1 ug/mL), antibody titrated, goat anti-human IgG Fc detection (Example 2)
Protocol: (§2) Human-TNFR2-His (manufacturer: SINO, CAT: 10417-H08H, LOT: LC15NO0412) was diluted to 0.1 μg/mL with a coating solution (1×PBS, pH7.4), and coated in 96-well ELISA plate at 100 µL/well overnight at 4° C. The coating solution was poured off. Each well was washed with 1×PBST at 300 μL, washed 4 times with a plate washer, and patted dry on a flat paper. It was blocked with 3% skim milk powder at 300 μL/well, and incubated at 37° C. for 1 h. The blocking solution was poured off, washed 4 times with a plate washer, and patted dry on a flat paper. Negative control and positive control were set up. […] The positive control and antibody were diluted to 10 μg/mL with 3% skim milk powder as the starting concentration, and then diluted by 3-fold gradient (11 gradients in total), and a blank well was set up and only the diluent was added. It was incubated at 37° C. for 1 h at 100 μL/well. The liquid in the well was discarded, washed 4 times with a plate washer, and patted dry on a flat paper. Goat anti-human IgG Fc was diluted with 3% skim milk powder at 1:10000, and incubated at 37° C. for 1 h at 100 μL/well. It was washed 6 times with a plate washer, and patted dry on a flat paper. TMB color developing solution was added at 100 μL/well, and wrapped with aluminum foil. Color development was performed at 37° C. in the dark for 8 min. Termination solution 1M HCl was added to terminate the color development reaction at 100 μL/well. Readings were taken at 450 nm on an ELISA reader.

Human-TNFR2-His [3] = target: T2, Human-TNFR2-His; assay: as above; remark: listed apart in the source
Protocol: as §2

Human 4-1BB His [4] = target: T4, Human 4-1BB His; assay: ELISA: Human 4-1BB His coated (0.2 ug/mL), antibody titrated, goat anti-human IgG Fc detection (Example 3); remark: listed apart in the source
Protocol: as §1

Human-TNFR2-His [5] = target: T2, Human-TNFR2-His; assay: ELISA: Human-TNFR2-His coated (0.1 ug/mL), antibody titrated, goat anti-human IgG Fc detection (Example 2); remark: listed apart in the source
Protocol: as §2

Human-TNFR2-His [6] = target: T2, Human-TNFR2-His; assay: BLI, antibody on AHC sensor, 100 nM TNFR2-His in solution
Protocol: The AHC sensor was soaked in 0.02% PBST (0.02% Tween 20, pH 7.4, 1×PBS) as a buffer for 600 s to remove the sucrose covering the sensor surface. The AHC sensor was equilibrated with 0.02% PBST (0.02% Tween 20, pH 7.4, 1×PBS) as a buffer for 60 s, the antibody in the sample plate was solidified for 300 s, and the secondary equilibration buffer was used for 180 s. 100 nM human-TNFR2-His (manufacturer: SINO, CAT: 10417-H08H, LOT: LC15NO0412) protein was bound to the antibody for 300 s and then dissociated for 600 s. After dissociation, 10 mM glycine (pH 2.0) was used as a regeneration buffer for 30 s. The sensor was regenerated with 10 mM glycine (pH 2.0).

Human-TNFR2-His [7] = target: T2, Human-TNFR2-His; assay: ELISA: Human-TNFR2-His coated (0.1 ug/mL), antibody titrated, goat anti-human IgG Fc detection (Example 2); remark: listed apart in the source
Protocol: as §2

Human-TNFR2-His [8] = target: T2, Human-TNFR2-His; assay: as above; remark: listed apart in the source
Protocol: as §2

T4 sequence (Q07011 24-186 limits assumed): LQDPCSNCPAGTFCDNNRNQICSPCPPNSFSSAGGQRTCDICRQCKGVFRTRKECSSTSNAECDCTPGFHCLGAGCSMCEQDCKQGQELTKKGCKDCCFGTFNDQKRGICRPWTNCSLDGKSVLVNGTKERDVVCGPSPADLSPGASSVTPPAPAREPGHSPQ
T3 sequence (Q07011 24-186 limits assumed): as above

Row | Binder | EC50 (read off the curve) (Human 4-1BB Fc) | EC50 (read off the curve) (Human 4-1BB His [1]) | EC50 (read off the curve) (Human TNFR2 mFc) | EC50 (read off the curve) (Human-TNFR2-His [2]) | EC50 (read off the curve) (Human-TNFR2-His [3]) | other results
1 | B1 | ~500 pM | ~200 pM | ~200 pM | ~400 pM | – | –
2 | B2 | – | – | – | – | ~100 pM | –
3 | B3 | – | – | – | – | ~200 pM | EC50 (read off the curve) (Human 4-1BB His [4]): ~200 pM
4 | B4 | ~500 pM | ~100 pM | ~200 pM | ~60 pM | – | –
5 | B5 | – | – | – | ~30 pM | – | EC50 (read off the curve) (Human-TNFR2-His [5]): ~30 pM; Kd (Human-TNFR2-His [6]): 72.4 pM; koff (Human-TNFR2-His [6]): 1.86e-05 s⁻¹; kon (Human-TNFR2-His [6]): 257000 M⁻¹ s⁻¹; EC50 (read off the curve) (Human-TNFR2-His [7]): ~30 pM; EC50 (read off the curve) (Human-TNFR2-His [8]): ~30 pM

From patent US20260049151A1 (SHENGHE CHINA BIOPHARMACEUTICAL, published 2026)
